First the molecules themselves.
B1: 28-21-D09-sc18 (scFv)
scFv: DIQMTQSPSSLSASVGDRVTITCQSSQSVFSNNYLAWYQQKPGQSPKRLIYSASTLASGVPSRFSGSGSGTHFTLTISSLQPEDFATYYCLGSYACSSADCYVFGTGTKVTVLGGGGGSGGGGSGGGGSGGGGSEVQLVESGGGLVQPGGSLRLSCAASGFSLSSYDMSWVRQAPGKGLEWIGASYASGPTYYASWAKGRFTISRDNSKNTVYLQMNSLRAEDTAVYYCARGGWTGTSHSNIWGQGTLVTVSS
B2: 28-21-D09-sc16 (scFv)
scFv: DIQMTQSPSSLSASVGDRVTITCQSSQSVFSNNYLAWYQQKPGQSPKRLIYSASTLASGVPSRFSGSGSGTDFTLTISSLQPEDFATYYCLGSYACSSADCYVFGTGTKVTVLGGGGGSGGGGSGGGGSGGGGSEVQLVESGGGLVQPGGSLRLSCAASGFSLSSYDMSWVRQAPGKGLEWIGASYASGPTYYASWAKGRFTISRDNSKNTVYLQMNSLRAEDTATYFCARGGWTGTSHSNIWGQGTLVTVSS
B3: 28-21-D09-sc19 (scFv)
scFv: DIQMTQSPSSLSASVGDRVTITCQSSQSVFSNNYLAWYQQKPGQSPKRLIYSASTLASGVPSRFSGSGSGTDFTLTISSLQPEDFATYYCLGSYACSSADCYVFGTGTKVTVLGGGGGSGGGGSGGGGSGGGGSEVQLVESGGGLVQPGGSLRLSCAASGFSLSSYDMSWVRQAPGKGLEWIGASYASGPTYYASWAKGRFTISRDNSKNTVYLQMNSLRAEDTAVYYCARGGWTGTSHSNIWGQGTLVTVSS
B4: 28-21-D09-sc04 (scFv)
scFv: DIQMTQSPSSLSASVGDRVTITCQSSQSVFSNNYLAWFQQKPGQSPKRLIYSASTLASGVPSRFSGSGSGTDFTLTISSLQPEDFATYYCLGSYACSSADCYVFGTGTKVTVLGGGGGSGGGGSGGGGSGGGGSEVQLVESGGGLVQPGGSLRLSCAASGFSLSSYDMSWVRQAPGKGLAWIGASYASGPTYYASWAKGRFTISRDNSKNTVYLQMNSLRAEDTATYFCARGGWTGTSHSNIWGQGTLVTVSS
B5: 28-21-D09-sc15 (scFv)
scFv: DIQMTQSPSSLSASVGDRVTITCQSSQSVFSNNYLAWYQQKPGQSPKRLIYSASTLASGVPSRFSGSGSGTHFTLTISSLQPEDFATYYCLGSYACSSADCYVFGTGTKVTVLGGGGGSGGGGSGGGGSGGGGSEVQLVESGGGLVQPGGSLRLSCAASGFSLSSYDMSWVRQAPGKGLEWIGASYASGPTYYASWAKGRFTISRDNSKNTVYLQMNSLRAEDTATYFCARGGWTGTSHSNIWGQGTLVTVSS
B6: PRO389 (IL23R×CD3 1st gen Numab) (bispecific antibody)
chain: DIQMTQSPSSLSASVGDRVTITCQASENIYSFLAWYQQKPGKAPKLLIYSASKLAAGVPSRFSGSGSGTDFTLTISSLQPEDFATYYCQQTNRYSNPDIYNVFGTGTKVTVLGGGGGSEVQLVESGGGLVQPGGSLRLSCAASGFPLSSYAMIWVRQAPGKGLEWIGMILRAGNIYYASWVKGRFTISRDNSKNTVYLQMNSLRAEDTAVYYCARRHYNREGYPIGIGDLWGQGTLVTVSSGGGGSGGGGSGGGGSGGGGSDIQMTQSPSSLSASVGDRVTITCQSSESVYNNKRLSWYQQKPGKAPKLLIYTASSLASGVPSRFSGSGSGTDFTLTISSLQPEDFATYYCQGEFTCSNADCFTFGTGTKVTVLGGGGGSEVQLVESGGGLVQPGGSLRLSCAASGIDFNSNYYMCWVRQAPGKGLEWIGCIYVGSHVNTYYANWAKGRFTISRDNSKNTVYLQMNSLRAEDTAVYYCATSGSSVLYFKFWGQGTLVTVSS

The first assay concerns the target cynomolgus CD3ε (recombinant, coupled to the SPR chip) (cynomolgus (Macaca fascicularis)) (UniProt Q95LI5). As to the kind of experiment: SPR (Biacore T200), CD3ε amine-coupled to CM5 chip, scFv as analyte, 1:1 Langmuir fit. On the technique in general: Surface plasmon resonance follows binding to a sensor surface in real time, without labels.
Take B1: the Kd (usually a measure of binding affinity in units of concentration) is 14.2 nM.

For B2, the Kd was 16.6 nM.

Take B3: the Kd worked out at 19.5 nM.

Regarding B4, the Kd came out at 4.78 nM.

Consider B5, for which the Kd stood at 13.7 nM.

In the next assay the target is human CD3ε on T cells (human, UniProt P07766 23-207). The assay can be described thus: cell-based or functional assay.
Chain of human CD3ε on T cells (P07766 23-207 limits assumed): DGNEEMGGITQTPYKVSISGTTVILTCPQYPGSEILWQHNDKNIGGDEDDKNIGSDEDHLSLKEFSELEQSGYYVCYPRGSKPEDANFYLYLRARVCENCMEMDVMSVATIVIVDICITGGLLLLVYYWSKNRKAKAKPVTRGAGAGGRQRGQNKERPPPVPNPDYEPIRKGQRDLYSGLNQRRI
Turning to B6, the “EC50 of specific target cell lysis (IL-23R-expressing CHO-K1 target cells, human PBMCs, flow cytometry cytotoxicity assay)” value is 0.0053 nM.

Values taken from US20220403028A1 (NUMAB THERAPEUTICS, published 2022).
